Reference: patent US20140242093A1, “METHODS AND COMPOSITIONS FOR MODULATING THE INNATE IMMUNE RESPONSE AND/OR MYOGENESIS IN A MAMMALIAN SUBJECT” (FRED HUTCHINSON CANCER RESEARCH CENTER, priority 2011, published 2014)

Test system: control human primary myoblasts
Assay: Expression microarray of primary myoblasts transduced with lentivirus carrying DUX4-fl, DUX4-s or GFP
Method: Primary human myoblasts were collected and cultured as previously described (Snider et al., 2010). Primary myoblasts were maintained at or below 70% confluency for proliferation. For differentiation, cells were allowed to reach 95-100% confluency in growth medium. Once confluency was reached, the cells were changed to differentiation medium (F10 media supplemented with 1% horse serum, 10 μg/mL insulin, and 10 μg/mL transferrin, penicillin/streptomycin) and maintained for 4 days. Human RD cells were grown in DMEM in 10% bovine calf serum (Hyclone) and penicillin/streptomycin. The primary myoblasts were transduced with lentivirus carrying DUX-fl, DUX4- or GFP (MOI=15).
Expression microarrays were performed on the transduced cells at 24 hours after transduction as follows. […] Samples were analyzed by Illumina Human Whole Genome microarrays. Probe intensities were corrected, normalized, and summarized by the Lumi package of Bioconductor (Du et al., 2008). Differentially expressed genes were identified by the LIMMA package of Bioconductor (Wettenhall and Smyth, 2004). Gene set enrichment analysis (GSEA) was performed using the Bioconductor GOstats package (Falcon and Gentleman, 2007).

B1: DUX4-s: short splice form of DUX4 (SEQ ID NO:112), keeps the double-homeobox domains, lacks the C-terminal activation domain (protein, listed as Homo sapiens)
chain: MALPTPSDSTLPAEARGRGRRRRLVWTPSQSEALRACFERNPYPGIATRERLAQAIGIPEPRVQIWFQNERSRQLRQHRRESRPWPGRRGPPEGRRKRTAVTGSQTALLLRAFEKDRFPGIAAREELARETGLPESRIQIWFQNRRARHPGQGGRAPAQV
With B1 the “fc of XPO1 (expression array)” value (Refseq NM_003400.3) was −0.2325, the “fc of ZFP36 (expression array)” value (Refseq NM_003407.2) was 0.2317 and the ZKSCAN1 fc (Refseq NM_003439.1) was 0.3802. For the same molecule, the “fc of Cxorfl2 (expression array)” value (Refseq NM_003492.1) was 0.03462, the “fc of TAGLN2 (expression array)” value (Refseq NM_003564.1) was 0.05495 and the “fc of EEA1 (expression array)” value (Refseq NM_003566.2) was 1.034. The IFITM1 expression fc (Refseq NM_003641.3, cultured human skeletal muscle) was 0.3441, the “fc of VAMP8 (expression array)” value (Refseq NM_003761.2) was 0.002691 and the “fc of VAMP4 (expression array)” value (Refseq NM_003762.3) was 0.4731. The RNGTT expression fc (Refseq NM_003800.3) was −0.5916, the RIPK1 fc (Refseq NM_003804.3) was −0.2407 and the TNFSF10 fc (Refseq NM_003810.2) was 2.972. For the same molecule, the TNFRSF14 expression fc (Refseq NM_003820.2, cultured human skeletal muscle) was 0.5666, the “fc of RIOK3 (expression array)” value (Refseq NM_003831.2) was 1.133 and the TNFRSF10A fc (Refseq NM_003844.2) was 0.8441. It also gave a PEX11B fc (Refseq NM_003846.1) of −0.2212, a CES2 expression fc (Refseq NM_003869.4, cultured human skeletal muscle) of 0.06106 and a CFLAR expression fc (Refseq NM_003879.3, cultured human skeletal muscle) of 0.5313. The “fc of ASAP2 (expression array)” value (Refseq NM_003887.2) was −0.3423, the CCNA1 expression fc (Refseq NM_003914.2) was 1.884 and the “fc of USP13 (expression array)” value (Refseq NM_003940.2) was −1.038. The NPR2 fc (Refseq NM_003995.3) was −0.04506, the “fc of OSMR (expression array)” value (Refseq NM_003999.1) was 1.118 and the CHI3L2 expression fc (Refseq NM_004000.2, cultured human skeletal muscle) was 0.2573. It also gave an IRF7 expression fc (Refseq NM_004029.2, cultured human skeletal muscle) of 1.137, a CRY1 expression fc (Refseq NM_004075.2) of −0.1268 and a PSPN expression fc (Refseq NM_004158.2) of −0.03876. For the same molecule, the BEST1 fc (Refseq NM_004183.2) was 0.2661, the UBE2L6 expression fc (Refseq NM_004223.3, cultured human skeletal muscle) was 0.5808 and the “fc of STK17B (expression array)” value (Refseq NM_004226.2) was 1.309. The “fc of SLC9A3R1 (expression array)” value (Refseq NM_004252.2) was −0.06339, the BST2 expression fc (Refseq NM_004335.2, cultured human skeletal muscle) was 0.21 and the CREB1 fc (Refseq NM_004379.2) was −0.08534. For the same molecule, the “fc of HOXB7 (expression array)” value (Refseq NM_004502.3) was −0.06124, the SP110 expression fc (Refseq NM_004510.2, cultured human skeletal muscle) was 1.154 and the PSPH fc (Refseq NM_004577.3) was 0.005654. It also gave an XPC expression fc (Refseq NM_004628.3, cultured human skeletal muscle) of 0.2629, a PABPN1 expression fc (Refseq NM_004643.1) of −0.2585 and an MAP3K6 fc (Refseq NM_004672.3) of −0.2268. For the same molecule, the “fc of SLC16A5 (expression array)” value (Refseq NM_004695.2) was −0.03968, the “fc of SFRS2IP (expression array)” value (Refseq NM_004719.2) was −1.068 and the “fc of ARHGEF2 (expression array)” value (Refseq NM_004723.2) was −0.07136. It also gave a TIAF1 fc (Refseq NM_004740.3) of −0.5294, an NOLC1 expression fc (Refseq NM_004741.1) of 0.4977 and an SLIT2 expression fc (Refseq NM_004787.1) of 0.8501. The LPXN fc (Refseq NM_004811.1) was −0.0176, the PEX16 fc (Refseq NM_004813.1) was 0.02427 and the C9orf61 expression fc (Refseq NM_004816.2) was −0.2563. The MED26 expression fc (Refseq NM_004831.3) was 0.1371, the “fc of GSTO1 (expression array)” value (Refseq NM_004832.1) was 0.3142 and the “fc of LITAF (expression array)” value (Refseq NM_004862.2) was 1.12. The “fc of SCAMPI (expression array)” value (Refseq NM_004866.4) was 1.369, the “fc of APBA3 (expression array)” value (Refseq NM_004886.3) was 0.001776 and the SERPINI1 expression fc (Refseq NM_005025.3) was 0.0354. The TRIM25 expression fc (Refseq NM_005082.4, cultured human skeletal muscle) was 0.5139, the SFRS17A expression fc (Refseq NM_005088.2) was 0.2404 and the ISG15 expression fc (Refseq NM_005101.1, cultured human skeletal muscle) was 0.128. For the same molecule, the MVP fc (Refseq NM_005115.3) was −0.1162, the MED13 expression fc (Refseq NM_005121.2) was 0.0264 and the “fc of REC8 (expression array)” value (Refseq NM_005132.2) was −0.244. The ATP6V0A1 fc (Refseq NM_005177.3) was −0.04497, the CEBPB expression fc (Refseq NM_005194.2, cultured human skeletal muscle) was 0.2783 and the ETS1 fc (Refseq NM_005238.2) was −0.1783. For the same molecule, the FAT1 fc (Refseq NM_005245.3) was 0.4055, the GPR37 expression fc (Refseq NM_005302.2) was 0.2151 and the H1F0 expression fc (Refseq NM_005318.2, cultured human skeletal muscle) was 0.5004. For the same molecule, the HSPA1A expression fc (Refseq NM_005345.4) was −0.02035, the HSPA1B expression fc (Refseq NM_005346.3) was 0.359 and the NEFM expression fc (Refseq NM_005382.1) was 0.8485. It also gave an SHMT2 fc (Refseq NM_005412.4) of 0.2615, an STAT2 expression fc (Refseq NM_005419.2, cultured human skeletal muscle) of 0.1861 and an EOMES expression fc (Refseq NM_005442.2) of 0.06484. It also gave a TOM1 fc (Refseq NM_005488.1) of 4.81E−05, an HLA-B expression fc (Refseq NM_005514.5, cultured human skeletal muscle) of 0.3367 and an HLA-E fc (Refseq NM_005516.4) of 0.8147. It also gave an IFI16 expression fc (Refseq NM_005531.1, cultured human skeletal muscle) of 0.6846, an IFI27 expression fc (Refseq NM_005532.3, cultured human skeletal muscle) of 0.2746 and an IFI35 expression fc (Refseq NM_005533.2, cultured human skeletal muscle) of 0.9169. It also gave an IRS1 fc (Refseq NM_005544.1) of 0.2753, a KLC1 expression fc (Refseq NM_005552.4) of −0.06609 and an RGS4 expression fc (Refseq NM_005613.3) of −0.4837. The SGK expression fc (Refseq NM_005627.2) was −0.1104, the TAF4B expression fc (Refseq NM_005640.1) was −0.0444 and the “fc of TERF2 (expression array)” value (Refseq NM_005652.2) was 0.3314. The “fc of REEP5 (expression array)” value (Refseq NM_005669.4) was −1.138, the “fc of HIPK3 (expression array)” value (Refseq NM_005734.3) was 1.555 and the ARIH1 expression fc (Refseq NM_005744.2) was 0.784. For the same molecule, the “fc of NAMPT (expression array)” value (Refseq NM_005746.2) was 1.21, the LHFPL2 fc (Refseq NM_005779.1) was −0.1437 and the STX6 expression fc (Refseq NM_005819.4) was −0.4696. The “fc of RCAN2 (expression array)” value (Refseq NM_005822.2) was −1.005, the MFGE8 fc (Refseq NM_005928.1) was 0.03254 and the MT1X expression fc (Refseq NM_005952.2, cultured human skeletal muscle) was 0.3162. It also gave an SNAI1 expression fc (Refseq NM_005985.2) of −0.03657, an RBM12 expression fc (Refseq NM_006047.4) of −0.3748 and a TRIM22 expression fc (Refseq NM_006074.3, cultured human skeletal muscle) of −0.01965. It also gave a CBARA1 expression fc (Refseq NM_006077.2) of −0.1543, a TUBB2C expression fc (Refseq NM_006088.5) of −0.5391 and an LASP1 fc (Refseq NM_006148.1) of −0.4552. The NFE2L2 fc (Refseq NM_006164.2) was 0.329, the OAS3 expression fc (Refseq NM_006187.2, cultured human skeletal muscle) was 0.8654 and the “fc of PDGFRL (expression array)” value (Refseq NM_006207.1) was 1.203. For the same molecule, the PSME1 fc (Refseq NM_006263.2) was 0.2775, the STK3 expression fc (Refseq NM_006281.2) was −0.215 and the THY1 fc (Refseq NM_006288.2) was −0.6444. It also gave a TNFAIP3 expression fc (Refseq NM_006290.2, cultured human skeletal muscle) of 0.2793, an HSPB3 expression fc (Refseq NM_006308.1) of −0.7934 and an NXF1 expression fc (Refseq NM_006362.4) of −0.3456. For the same molecule, the “fc of ATG7 (expression array)” value (Refseq NM_006395.1) was 0.2083, the SLC34A2 expression fc (Refseq NM_006424.2) was −0.03231 and the TXNRD2 fc (Refseq NM_006440.3) was −0.1666. For the same molecule, the “fc of MXD4 (expression array)” value (Refseq NM_006454.2) was −0.9168, the ARID3B expression fc (Refseq NM_006465.2) was −0.07455 and the TXNIP expression fc (Refseq NM_006472.2, cultured human skeletal muscle) was −0.01014. The ZNF217 expression fc (Refseq NM_006526.2) was −0.3262, the FAM189B fc (Refseq NM_006589.2) was 0.04019 and the “fc of TCFL5 (expression array)” value (Refseq NM_006602.2) was 0.0336. For the same molecule, the RFPL2 expression fc (Refseq NM_006605.1) was 0.03122, the “fc of NES (expression array)” value (Refseq NM_006617.1) was −1.118 and the HSPH1 expression fc (Refseq NM_006644.2) was −0.4879. The HCP5 fc (Refseq NM_006674.2) was 0.1443, the UGP2 fc (Refseq NM_006759.3) was 0.1108 and the IFI44L expression fc (Refseq NM_006820.1, cultured human skeletal muscle) was 0.4651. For the same molecule, the “fc of CKAP4 (expression array)” value (Refseq NM_006825.2) was 0.03538, the “fc of ILVBL (expression array)” value (Refseq NM_006844.3) was −0.2803 and the KDELR3 fc (Refseq NM_006855.2) was −0.444. The “fc of GMPR (expression array)” value (Refseq NM_006877.2) was 1.36, the SLC2A3 expression fc (Refseq NM_006931.1) was 0.1012 and the “fc of HSPA13 (expression array)” value (Refseq NM_006948.4) was 1.34. The ZBTB25 fc (Refseq NM_006977.2) was 0.3463, the ADAMTS1 fc (Refseq NM_006988.3) was 0.1765 and the C1Oorf10 expression fc (Refseq NM_007021.2, cultured human skeletal muscle) was 0.1432. The “fc of DNAJB4 (expression array)” value (Refseq NM_007034.3) was 0.413, the KATNA1 expression fc (Refseq NM_007044.2) was 0.1132 and the UBL3 expression fc (Refseq NM_007106.2) was −0.807. For the same molecule, the TESK2 expression fc (Refseq NM_007170.2) was 0.1269, the NUP50 expression fc (Refseq NM_007172.3) was 1.035 and the “fc of PACSIN2 (expression array)” value (Refseq NM_007229.1) was −0.3253. The DUSP12 expression fc (Refseq NM_007240.1) was 0.09869.
